According to patent US20160122421A1:
Ends that are not written are not given here.

Molecular target: humanized variant of IPN002 (hu-IPN002)
Test: competition ELISA; competitor: biotin-Tau 13-24 on hu-IPN002

IC50 (read off the curve): 400 nM
Binder: DHAGTYGLGDRK (also: biotinylated, position not given here, also used non-biotinylated) [Peptide 1 (Tau amino acids 13-24)]
